US20130041138A1, “ANTIBODIES THAT BIND TO PSCA PROTEINS FOR DIAGNOSIS OF CANCER” (priority 2003, published 2013)

Tests used:
[1] = molecular target: T1, cell surface PSCA on PSCA-expressing cells (endogenous or recombinant) (Homo sapiens, UniProt O43653); test: PSCA human MAb screening by FACS; type: binding
T1 construct: host or cells: PSCA-expressing cells (endogenous or recombinant)
Procedure: FIGS. 9A and 9B. Screening for human PSCA antibodies by FACS. Antibody concentration from supernatants was determined by ELISA. 50 ul/well of (neat) was added to 96-well FACS plates and serially diluted. PSCA-expressing cells were added (endogenous or recombinant, 50,000 cells/well) and the mixture incubated at 4° C. for two hours. Following incubation, the cells were washed with FACS Buffer and further incubated with 100 ul of detection antibody (anti-hIgG-PE) for 45 minutes at 4° C. At the end of incubation, the cells were washed with FACS Buffer, fixed with formaldehyde and analyzed using FACScan. Data were analyzed using CellQuest Pro software. Solid histograms represent data from negative control cells and open histograms indicate data from PSCA-positive cells.
Primary hybridoma screening for MAbs to PSCA was performed by FACS. The protocol was as follows: 50 ul/well of hybridoma supernatant (neat) or purified antibodies (in serial dilutions) were added to 96-well FACS plates and mixed with PSCA-expressing cells (endogenous or recombinant, 50,000 cells/well). The mixture was incubated at 4° C. for two hours. At the end of incubation, the cells were washed with FACS Buffer and incubated with 100 ul of detection antibody (anti-hIgG-PE) for 45 minutes at 4° C. At the end of incubation, the cells were washed with FACS Buffer, fixed with Formaldehyde and analyzed using FACScan. Data were analyzed using CellQuest Pro software. Filled histograms indicate data from negative control cells, and open histograms represent data from PSCA-positive cells (FIG. 9).
Positive hybridomas identified from primary screens were transferred to 24-well plates and supernatants collected for confirmatory screens. Confirmatory screens included FACs analysis on B300.19-PSCA/300.19-neo, Rat1-PSCA/Rat1-neo, PC3-PSCA/neo, SW780 (bladder cancer cell line), LAPC9AI (prostate cancer cell line), HPAC (pancreatic cancer cell line), and ELISA assay using Tag5-PSCA, GST-PSCA, GST-PSCA N-term, Med. C-Term, and pET-PSCA.

[2] = system: SW780 human bladder tumors; test: Subcutaneous SW780 bladder tumor xenograft; type: in vivo, ICR SCID mice; conditions: 250 mg/mouse i.p. two times a week, 7 doses, from day of injection; t test
Procedure: FIG. 27. Human PSCA MAbs Inhibit the Growth of SW780 Bladder Tumors in SCID Mice. Human SW780 bladder cancer cells (2×10^6/mouse) were injected subcutaneously into immunodeficient ICR SCID mice (Taconic Farm, Germantown, N.Y.). The mice were randomized into groups (n=10 animals/group) and treatment with the indicated human PSCA MAb initiated the same day. Antibodies (250 mg/mouse) were delivered intraperitoneally two times a week for a total of 7 doses. […] Statistical analyses were performed using at test (two-sided, α=0.05).
In another experiment, Human SW780 bladder cancer cells (2×10^6/mouse) were injected subcutaneously into immunodeficient ICR SCID mice (Taconic Farm, Germantown, N.Y.). The mice were randomized into groups (n=10 animals/group) and treatment with the indicated human PSCA MAb initiated the same day. Antibodies (250 mg/mouse) were delivered intraperitoneally two times a week for a total of 7 doses. […] Statistical analyses were performed using at test (two-sided, α=0.05) (FIG. 27).

[3] = system: B300.19-PSCA expressing cells; test: Complement mediated cytotoxicity; type: cell-based; conditions: 0-50 μg/ml antibody, rabbit complement serum, 2 hr 37° C., Alamar Blue
Procedure: (§1) FIG. 14. Complement mediated cytotoxicity of PSCA Mabs. PSCA antibodies (0-50 μg/ml) were diluted with RHB buffer (RPMI 1640, Gibco Life Technologies, 20 mM HEPES). B300.19-PSCA expressing cells were washed in RHB buffer and resuspended at a density of 10^6 cells/ml. In a typical assay, 50 μl of PSCA antibody, 50 μl of diluted rabbit complement serum (Cedarlane, Ontario, Can), and 50 μl of a cell suspension were added together into a flat-bottom tissue culture 96-well plate. The mixture was incubated for 2 hr. at 37° C. in a 5% CO2 incubator to facilitate complement-mediated cell lysis. […] The fluorescence in each well was read using a 96-well fluorometer with excitation at 530 nm and emission at 590 nm.
as §1, with “PSCA” for “FIG. 14. Complement mediated cytotoxicity of PSCA”, “antibodies were evaluated to determine their ability to mediate immune dependent cytotoxicity.” for “Mabs.”, “plate.” for “plate. The mixture was incubated for 2 hr. at 37° C. in a 5% CO2 incubator to facilitate complement-mediated cell lysis.”

[4] = system: LAPC-9AI androgen-independent human prostate cancer xenografts; test: Established subcutaneous LAPC-9AI prostate cancer xenograft; type: in vivo, SCID mice; conditions: treatment from tumor volume 50 mm3, i.p. twice weekly, 5 doses until day 14; p<0.05
Procedure: FIG. 19. PSCA MAb Ha1-5.99 Inhibits the Growth of Established Prostate Cancer Xenografts in SCID mice. LAPC-9AI tumor cells (2.0×10^6 cells) were injected subcutaneously into male SCID mice. When tumor volume reached 50 mm3, the mice were randomized into groups (n=10 in each group) and treatment initiated intraperitoneally (i.p.) with HA1-5.99.1 or isotype MAb control as indicated. Animals were treated twice weekly for a total of 5 doses until study day 14. Tumor growth was monitored using caliper measurements every 3 to 4 days as indicated.
In another experiment, LAPC-9AI tumor cells (2.0×10^6 cells) were injected subcutaneously into male SCID mice. When tumor volume reached 50 mm3, the mice were randomized into groups (n=10 in each group) and treatment initiated intraperitoneally (i.p.) with HA1-5.99.1 or isotype MAb control as indicated Animals were treated twice weekly for a total of 5 doses until study day 14. Tumor growth was monitored using caliper measurements every 3 to 4 days as indicated. […] (FIG. 19).

| Molecule | react and bind with cell surface or immobilized PSCA [1] | inhibition of subcutaneous tumor growth [2] | binding to endogenous cell surface PSCA ([1]; PSCA expressed in prostate cancer xenograft cells) | complement dependent lysis of target cells [3] | inhibition of growth of established subcutaneous tumors [4] |
| --- | --- | --- | --- | --- | --- |
| Ha1-4.37: fully human gamma 1 anti-PSCA monoclonal antibody from XenoMouse; ATCC PTA-6702; sequences FIG. 2P-2Q (antibody, V domains shown) VH: CPGALQESGPGLVRPSQTLSLTCTVSGGSISSGGTYYWIWIRQHPGKGLEWIGYIYYSGSTYYNPSLKSRVTISVDTSKNQFSLKLSSVTAADTAVYYCARDGITMVRGISGGMDVWGQGTTVTVSSASTKGPSVKGPSVF VL: ASVGDRVTITCRASQSISSHLNWYQQKPGKAPKLLIYAASSLQSGVPSRFSGSGSGTDFTLSISSLQPEDFATYFCQQSYSIPRTFGQGTKVEITRTVAAPSVFIFPPSDEQLKSGTASVVCLLNNFYPREAKVQWKVDNALQSG | react and bind with cell surface or immobilized PSCA | significantly inhibited the growth | – | – | – |
| Ha1-5.99: fully human gamma 2 anti-PSCA monoclonal antibody from XenoMouse; ATCC PTA-6703; sequences FIG. 2E-2F (antibody, V domains shown) VH: QVHLQQWGAGLLKPSETLSLTCAVYGGSFSGYYWSWIRQPPGKGLEWIGEINHSGSTSYKPSLKSRVTVSVDTSKNQFSLKLSYVTAADTAVYYCARDRGDYGDFLFDYWGQGTLVTVSSASTKGPSVFPLAPSSKST VL: SPGERATLSCRASQSIGSTYLAWYQQKPGQAPRLLIYGASSRATGIPERFSGSGSGTDFTLTISGLEPEDFAVFYCQQCGSSPPTFGQGTKVEIKRTVAAPSVFIFPPSDEQLKSGTASVVCLLNNFYPREAKVQWKVDNA | react and bind with cell surface or immobilized PSCA | significantly inhibited the growth | bind endogenous cell surface PSCA | able to mediate complement dependent lysis | significantly inhibited the growth |
